Test results taken from paper PMC5472405, “Epithelial chemokine CXCL14 synergizes with CXCL12 via allosteric modulation of CXCR4” (The FASEB Journal, 2017).

B1: CXC chemokine receptor 4 (CXCR4) on lentiviral particles (receptor, UniProt P61073 1-352, looked up)
chain: MEGISIYTSDNYTEEMGSGDYDSMKEPCFREENANFNKIFLPTIYSIIFLTGIVGNGLVILVMGYQKKLRSMTDKYRLHLSVADLLFVITLPFWAVDAVANWYFGNFLCKAVHVIYTVNLYSSVLILAFISLDRYLAIVHATNSQRPRKLLAEKVVYVGVWIPALLLTIPDFIFANVSEADDRYICDRFYPNDLWVVVFQFQHIMVGLILPGIVILSCYCIIISKLSHSKGHQKRKALKTTVILILAFFACWLPYYIGISIDSFILLEIIKQGCEFENTVHKWISITEALAFFHCCLNPILYAFLGAKFKTSAQHALTSVSRGSSLKILSKGKRGGHSSVSTESESSSFHSS
notes: also called CXCR4-expressing LVPs

What was measured:
[1] = target: T1, full-length CXCL12α, synthetic (human, UniProt P48061-2 22-89); experiment: SPR; CXCR4 lentiviral particles (8000-8500 RU) immobilised on a CM5 chip; CXCL12 or CXCL14 12.5-200 nM injected in HBS (100 mM HEPES, 150 mM NaCl, 0.005% P20, pH 7.4), 30 ul/min, 25°C; reference: particles from CXCR4-negative cells or none; simple 1-site model; Biacore 3000; conditions: one partner purified
T1 construct: also called CXC chemokine ligand 12; source: chemically synthesized
T1 sequence (P48061 22-89): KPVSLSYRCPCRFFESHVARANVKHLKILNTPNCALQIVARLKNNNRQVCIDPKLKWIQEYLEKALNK

[2] = target: B1; experiment: cell-based or functional assay
[3] = target: B1; experiment: SPR; CXCR4 lentiviral particles (8000-8500 RU) immobilised on a CM5 chip; CXCL12 or CXCL14 12.5-200 nM injected in HBS (100 mM HEPES, 150 mM NaCl, 0.005% P20, pH 7.4), 30 ul/min, 25°C; reference: particles from CXCR4-negative cells or none; simple 1-site model; Biacore 3000; conditions: one partner purified

Row | Binder | Kd [1] | koff [1] | kon [1] | entry of R5-tropic HIV-1 (pR8Bal) into TZM-bl cells (luciferase reporter), 0-1000 nM CXCL14 [2] | entry of X4 HIV-1 (pNL4.3) into TZM-bl cells (luciferase reporter), 10-1000 nM CXCL14 alone [2] | Kd [3] | koff [3] | kon [3]
1 | B1 | 35 nM | 0.00428 s⁻¹ | 122000 M⁻¹ s⁻¹ |  |  |  |  | 
2 | CXC chemokine ligand 14 (CXCL14), synthetic (ligand, human, UniProt O95715 35-111, looked up, source: chemically synthesized) SKCKCSRKGPKIRYSDVKKLEMKPKYPHCEEKMVIITTKSVSRYRGQEHCLHPKLQSTKRFIKWYNAWNEKRRVYEE |  |  |  | > 3 fold | > 3 fold | 8 nM | 0.00317 s⁻¹ | 396000 M⁻¹ s⁻¹
